Read-outs that look alike come from different tables or passages of the source. Each block holds one substance with its values, some of them ahead of it.
Legend:
[1] = target: MMOB (Methylococcus capsulatus) (UniProt P18797); details: cited from earlier work
[2] = target: MMOR (Methylococcus capsulatus) (UniProt P22868); details: cited from earlier work
[3] = target: MMOR (Methylosinus trichosporium) (UniProt Q53563); details: cited from earlier work
[4] = target: MMOB (Methylosinus trichosporium) (UniProt P27356); assay: fluorescence quenching; details: cited from earlier work
[5] = target: soluble methane monooxygenase hydroxylase component (sMMOH), (αβγ)2, from Methylosinus trichosporium OB3b (Methylosinus trichosporium OB3b) (UniProt P27353); assay: NMR titration
[6] = target: soluble methane monooxygenase hydroxylase component (sMMOH), (αβγ)2, from Methylosinus trichosporium OB3b (Methylosinus trichosporium OB3b) (UniProt P27353); assay: NMR titration; remark: listed apart in the source
[7] = target: soluble methane monooxygenase hydroxylase component (sMMOH), (αβγ)2, from Methylosinus trichosporium OB3b (Methylosinus trichosporium OB3b) (UniProt P27353); assay: NMR titration; remark: listed apart in the source

Substance: sMMOH (diferric) (from UniProt P22869)
Kd [1]: 550 nM
Kd [2]: 900 nM

Substance: sMMOH (diferric) (from UniProt P27353)
Kd [3]: 10 nM
Kd [4]: 68 nM

Kd [5]: 90 nM
half dissociation value [6]: 13.7 µM
Kd [7]: 60 nM
half dissociation value [7]: 9.1 µM
Substance: methane monooxygenase reductase component (MMOR), unlabelled (from UniProt Q53563 1-340) (enzyme)

From publication PMC8345336
